Test results taken from paper PMC5018458 (Bioorganic & medicinal chemistry letters, 2016).

Key:
B16/F1 melanoma = conditions: 2 h post-injection; cited from earlier work
[1] = tested on: M21 human melanoma xenografts; experiment: SPECT/CT imaging of M21 human melanoma-xenografted nude mouse; assay type: in vivo; conditions: about 7.4 MBq iv tail vein, 2 h post-injection
M21 human melanoma cells = experiment: Cellular efflux in M21 human melanoma cells; assay type: cell-based; conditions: M21 cells loaded 2 h at 37 °C, then 2 h of incubation in the culture medium
[2] = tested on: M21 human melanoma-xenografted nude mice; experiment: Biodistribution in M21 human melanoma-xenografted nude mice; assay type: in vivo

In the case of “hydrazinonicotinamide-8-aminooctanoic acid-Nle-c[Asp-His-DPhe-Arg-Trp-Lys]-CONH2 (sidechain bridge or staple) [^99mTc(EDDA)-HYNIC-AocNle-CycMSHhex]”, the “Visualization of B16/F1 melanoma lesions by SPECT/CT” value (B16/F1 melanoma) is listed as “clearly visualized”, the “Visualization of M21 human melanoma xenografts by SPECT/CT” value [1] is listed as “clearly visualized” and the “Activity remained inside the cells (cellular efflux)” value (M21 human melanoma cells) is listed as 66%. For the same substance, the “Uptake ratio Tumor/kidney” value ([2]; 0.5 h post-injection) was 0.40, the “Uptake ratio Tumor/kidney” value ([2]; 2 h post-injection) was 0.71 and the “Tumor uptake blocked by co-injection of non-radioactive NDP-MSH” value ([2]; 2 h post-injection, 10 μg (6.07 nmol) NDP-MSH co-injected) was 80%. For the same substance, the “Uptake ratio Tumor/kidney” value ([2]; 2 h post-injection, NDP blockade (co-injection of 10 μg NDP-MSH)) was 0.17, the “Uptake ratio Tumor/kidney” value ([2]; 4 h post-injection) was 0.95 and the “Uptake ratio Tumor/kidney” value ([2]; 24 h post-injection) was 1.13. The “Intestines, percent injected dose” value ([2]; mouse, in vivo) was 1.65±0.73 %ID and the “Urine, percent injected dose (urinary clearance)” value ([2]; mouse, in vivo) was 92.23±1.52 %ID.
